Measurements as given in IntAct's records for PubMed 29892012.

B1: Disks large-associated protein 2 (Homo sapiens), Q9P1A6 (parent)
chain: MGTAQVLPGILQKHCCILPDRNTESQCTLCGEPEEEEAGDLVQPGISFPGPAEEDLDPQYSWSPTQHFNEERYSPAPRSMKGLSGSRTQPPLCSGHTCGLAPPEDCEHLHHGPDARPPYLLSPADSCPGGRHRCSPRSSVHSECVMMPVVLGDHVSSSTFPRMHYSSHYDTRDDCAVAHAGAKINRIPANLLDQFEKQLPLHRDGFHTLQYQRTSAAAEQRSESPGRIRHLVHSVQKLFTKSHSLEGSSKSNANGTKADGRADDHHHAHHAKHSKRSKSKERKPEGKPRPGMSSWWSSDDNLDSDSTYRTPSVLNRHHLGPVAHCYPDALQSPFGDLSLKTSKSNNDVKCSACEGLALTPDAKYLKRSSWSTLTVSQAKEAYRKSSLNLDKPLLHQDAKPALRPCHYLQVPQDEWGGYPTGGKDEEIPCRRMRSGSYIKAMGDEESGESDSSPKTSPKSAILPEPLLKSIGQRPLGEHQTQTYLQAASDVPVGHSLDPAANYNSPKFRSRNQSYMRAVSTLSQASCVSQVSEAEINGQFESVCESVFSEVESQAMDALDLPGCFRTRSHSYLRAIQAGYSQDDECIPMMTPSDITSTIRSTAAVSYTNYKKTPPPVPPRTTSKPLISVTAQSSTESTQDAYQDSRAQRMSPWPQDSRGLYNSTDSLDSNKAMNLALETAAAQRHLPESQSSSVRTSDKAILVSKAEELLKSRCSSIGIQDSEFPEHQPYPRSDVETATDSDTESRGLREYHSVGVQVEDEKRHGRFKRSNSVTAAVQADLELEGFPGHITTEDKGLQFGSSFQRHSEPSTPTQYSAVRTVRTQGLFSYREDYRTQVDTSTLPPPDPWLEPAIDTVETGRMSPCRRDGSWFLKLLHAETKRMEGWCKEMEREAEENDLSEEILGKIRSAVGSAQLLMSQKFQQFYWLCQQNMDPSAMPRPTSQDLAGYWDMLQLSIEDVSMKFDELQRLRLNDWKMMESPERKEERKVPPPIPKKPPKGKFPITREKSLDLPDRQRQEARRRLMAAKRAASFRQNSASERADSIEIYIPEAQTRL
partner: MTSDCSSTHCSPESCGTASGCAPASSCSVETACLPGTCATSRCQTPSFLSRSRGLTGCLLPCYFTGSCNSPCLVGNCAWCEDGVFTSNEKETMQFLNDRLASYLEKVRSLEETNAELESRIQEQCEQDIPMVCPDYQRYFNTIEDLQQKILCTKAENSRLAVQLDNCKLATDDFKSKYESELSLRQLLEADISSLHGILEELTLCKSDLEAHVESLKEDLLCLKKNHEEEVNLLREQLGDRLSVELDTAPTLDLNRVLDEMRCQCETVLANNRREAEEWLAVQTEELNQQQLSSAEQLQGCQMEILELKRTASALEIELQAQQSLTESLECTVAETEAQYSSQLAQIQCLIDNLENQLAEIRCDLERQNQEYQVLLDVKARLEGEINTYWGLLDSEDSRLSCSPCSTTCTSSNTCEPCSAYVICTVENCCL
B2: Coiled-coil domain-containing protein 120 (Homo sapiens), Q96HB5-4 (parent)
chain: MRREPRYQGQVGPDIHTDSERTLSSHQPRPLDSTKMEVKGQLISSPTFNAPAALFGEAAPQVKSERLRGLLDRQRTLQEALSLKLQELRKVCLQEAELTGQLPPECPLEPGERPQLVRRRPPTARAYPPPHPNQAHHSLCPAEELALEALEREVSVQQQIAAAARRLALAPDLSTEQRRRRRQVQADALRRLHELEEQLRDVRARLGLPVLPLPQPLPLSTGSVITTQGVCLGMRLAQLSQEDVVLHSESSSLSESGASHDNEEPHGCFSLAERPSPPKAWDQLRAVSGGSPERRTPWKPPPSDLYGDLKSRRNSVASPTSPTRSLPRSASSFEGRSVPATPVLTRGAGPQLCKPEGLHSRQWSGSQDSQMGFPRADPASDRASLFVARTRRSNSSEALLVDRAAGGGAGSPPAPLAPSASGPPVCKSSEVLYERPQPTPAFSSRTAGPPDPPRAARPSSAAPASRGAPRLPPVCGDFLLDYSLDRGLPRSGGGTGWGELPPAAEVPGPLSRRDGLLTMLPGPPPVYAADSNSPLLRTKDPHTRATRTKPCGLPPEAAEGPEVHPNPLLWMPPPTRIPSAGERSGHKNLALEGLRDWYIRNSGLAAGPQRRPVLPSVGPPHPPFLHARCYEVGQALYGAPSQAPLPHSRSFTAPPVSGRYYADFLYPPELSARLSDLTLEGEQSSSSDTQTPGTLV
partner: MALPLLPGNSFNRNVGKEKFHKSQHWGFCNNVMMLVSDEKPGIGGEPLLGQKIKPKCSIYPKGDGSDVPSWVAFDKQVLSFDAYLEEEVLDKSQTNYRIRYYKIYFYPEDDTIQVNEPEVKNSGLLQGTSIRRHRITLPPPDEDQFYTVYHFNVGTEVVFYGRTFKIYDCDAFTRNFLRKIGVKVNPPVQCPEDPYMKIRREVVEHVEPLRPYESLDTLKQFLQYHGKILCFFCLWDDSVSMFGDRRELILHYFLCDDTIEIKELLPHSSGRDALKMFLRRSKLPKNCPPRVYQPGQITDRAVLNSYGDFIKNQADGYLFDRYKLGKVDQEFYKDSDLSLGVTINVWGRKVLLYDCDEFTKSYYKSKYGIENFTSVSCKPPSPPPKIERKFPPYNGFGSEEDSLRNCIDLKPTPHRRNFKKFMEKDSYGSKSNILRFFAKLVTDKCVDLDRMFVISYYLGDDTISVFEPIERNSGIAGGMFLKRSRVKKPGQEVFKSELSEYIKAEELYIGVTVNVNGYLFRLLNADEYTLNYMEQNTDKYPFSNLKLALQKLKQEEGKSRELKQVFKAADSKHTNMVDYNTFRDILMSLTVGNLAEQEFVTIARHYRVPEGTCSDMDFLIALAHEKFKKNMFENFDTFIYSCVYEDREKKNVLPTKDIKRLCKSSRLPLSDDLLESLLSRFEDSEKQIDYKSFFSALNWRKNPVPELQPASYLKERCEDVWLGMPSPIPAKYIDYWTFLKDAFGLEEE
B3: Myotubularin-related protein 9 (Homo sapiens), Q96QG7 (parent)
chain: MEFAELIKTPRVDNVVLHRPFYPAVEGTLCLTGHHLILSSRQDNTEELWLLHSNIDAIDKRFVGSLGTIIIKCKDFRIIQLDIPGMEECLNIASSIEALSTLDSITLMYPFFYRPMFEVIEDGWHSFLPEQEFELYSSATSEWRLSYVNKEFAVCPSYPPIVTVPKSIDDEALRKVATFRHGGRFPVLSYYHKKNGMVIMRSGQPLTGTNGRRCKEDEKLINATLRAGKRGYIIDTRSLNVAQQTRAKGGGFEQEAHYPQWRRIHKSIERYHILQESLIKLVEACNDQTHNMDRWLSKLEASNWLTHIKEILTTACLAAQCIDREGASILIHGTEGTDSTLQVTSLAQIILEPRSRTIRGFEALIEREWLQAGHPFQQRCAQSAYCNTKQKWEAPVFLLFLDCVWQILRQFPCSFEFNENFLIMLFEHAYASQFGTFLGNNESERCKLKLQQKTMSLWSWVNQPSELSKFTNPLFEANNLVIWPSVAPQSLPLWEGIFLRWNRSSKYLDEAYEEMVNIIEYNKELQAKVNILRRQLAELETEDGMQESP
partner: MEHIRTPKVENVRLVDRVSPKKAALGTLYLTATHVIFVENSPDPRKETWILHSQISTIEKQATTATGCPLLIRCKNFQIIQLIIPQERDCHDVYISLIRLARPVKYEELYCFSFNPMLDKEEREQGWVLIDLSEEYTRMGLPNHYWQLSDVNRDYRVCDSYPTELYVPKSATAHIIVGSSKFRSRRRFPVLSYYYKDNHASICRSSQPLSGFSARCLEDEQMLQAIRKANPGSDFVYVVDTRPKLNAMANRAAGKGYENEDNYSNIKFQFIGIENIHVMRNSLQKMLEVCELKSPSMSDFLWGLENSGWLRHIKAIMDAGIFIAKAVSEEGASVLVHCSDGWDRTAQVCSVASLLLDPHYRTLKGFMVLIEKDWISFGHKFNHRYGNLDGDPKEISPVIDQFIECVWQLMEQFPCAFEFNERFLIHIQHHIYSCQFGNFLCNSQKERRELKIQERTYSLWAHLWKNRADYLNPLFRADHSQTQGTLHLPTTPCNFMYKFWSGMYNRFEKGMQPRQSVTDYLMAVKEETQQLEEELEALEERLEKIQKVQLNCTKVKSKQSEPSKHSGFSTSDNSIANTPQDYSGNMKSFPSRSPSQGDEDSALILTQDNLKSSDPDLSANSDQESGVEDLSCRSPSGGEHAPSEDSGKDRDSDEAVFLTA
B4: Atos homolog protein B (Homo sapiens), Q7L5A3 (parent)
chain: MRHVQAEPSPSSEPEAGPSQPPVRQGALQGGLLMGYSPAGGATSPGVYQVSIFSPPAGTSEPHRALKRQAPSTEGPRELKRGPGLGAREGLPPEEPSTVGLLGPEGPGLGLGVASQHFSHRGLCVVEQRSSVTSSWTSGAWSPPCPPSNASCNTLHTRDWASPDPGGQGSLGESPGPAPPGQLHTLDTDLHSLAQIGGKSPVAGVGNGGSLWPRESPGTANGHSPEHTPPGPGPPGPCPTKRRLLPAGEAPDVSSEEEGPAPRRRRGSLGHPTAANSSDAKATPFWSHLLPGPKEPVLDPTDCGPMGRRLKGARRLKLSPLRSLRKGPGLLSPPSASPVPTPAVSRTLLGNFEESLLRGRFAPSGHIEGFTAEIGASGSYCPQHVTLPVTVTFFDVSEQNAPAPFLGIVDLNPLGRKGYSVPKVGTVQVTLFNPNQTVVKMFLVTFDFSDMPAAHMTFLRHRLFLVPVGEEGNANPTHRLLCYLLHLRFRSSRSGRLSLHGDIRLLFSRRSLELDTGLPYELQAVTEAPHNPRYSPLP
partner: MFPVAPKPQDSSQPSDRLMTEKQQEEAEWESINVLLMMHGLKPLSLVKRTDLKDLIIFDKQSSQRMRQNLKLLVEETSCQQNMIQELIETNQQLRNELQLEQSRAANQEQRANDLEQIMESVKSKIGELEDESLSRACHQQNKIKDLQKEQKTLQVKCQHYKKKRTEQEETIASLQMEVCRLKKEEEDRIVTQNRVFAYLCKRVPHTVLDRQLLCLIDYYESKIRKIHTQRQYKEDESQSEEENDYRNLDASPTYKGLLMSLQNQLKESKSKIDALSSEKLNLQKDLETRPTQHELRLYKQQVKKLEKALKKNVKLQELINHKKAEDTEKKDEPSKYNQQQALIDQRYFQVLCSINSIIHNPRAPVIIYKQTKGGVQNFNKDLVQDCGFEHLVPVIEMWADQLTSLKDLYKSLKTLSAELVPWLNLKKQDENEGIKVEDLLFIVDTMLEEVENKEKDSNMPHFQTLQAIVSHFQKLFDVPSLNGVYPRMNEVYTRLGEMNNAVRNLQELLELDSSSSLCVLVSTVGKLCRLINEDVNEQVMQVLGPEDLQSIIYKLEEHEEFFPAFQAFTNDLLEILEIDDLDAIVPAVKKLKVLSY
B5: TBC1 domain family member 22B (Homo sapiens), Q9NU19 (parent)
chain: MAAENSKQFWKRSAKLPGSIQPVYGAQHPPLDPRLTKNFIKERSKVNTVPLKNKKASSFHEFARNTSDAWDIGDDEEEDFSSPSFQTLNSKVALATAAQVLENHSKLRVKPERSQSTTSDVPANYKVIKSSSDAQLSRNSSDTCLRNPLHKQQSLPLRPIIPLVARISDQNASGAPPMTVREKTRLEKFRQLLSSQNTDLDELRKCSWPGVPREVRPITWRLLSGYLPANTERRKLTLQRKREEYFGFIEQYYDSRNEEHHQDTYRQIHIDIPRTNPLIPLFQQPLVQEIFERILFIWAIRHPASGYVQGINDLVTPFFVVFLSEYVEEDVENFDVTNLSQDMLRSIEADSFWCMSKLLDGIQDNYTFAQPGIQKKVKALEELVSRIDEQVHNHFRRYEVEYLQFAFRWMNNLLMRELPLRCTIRLWDTYQSEPEGFSHFHLYVCAAFLIKWRKEILDEEDFQGLLMLLQNLPTIHWGNEEIGLLLAEAYRLKYMFADAPNHYRR
partner: B1 partner

Variants of: B1
Details: with KRT40, Q6A162

effect of a mutation on the interaction | Variant
with no effect | R818T

Variants of: B2
Details: with efhc2_human EFHC2, Q5JST6

effect of a mutation on the interaction | Variant
with no effect | R346W

Variants of: B3
Details: with mtmr7_human MTMR7, Q9Y216

effect of a mutation on the interaction | Variant
with no effect | R359S

Variants of: B4
Details: with cep70_human CEP70, Q8NHQ1

effect of a mutation on the interaction | Variant
disrupting interaction strength | C381Y

Variants of: B5
Details: with KRT40, Q6A162

effect of a mutation on the interaction | Variant
disrupting interaction strength | A349T
